Data set [1] addresses FX (blood coagulation factor X). The data set is described as follows: cell-based or functional assay.
For data set [2] the target is unchanged.
The target of data set [3] is rsTF (recombinant soluble tissue factor) (UniProt P13726). Nature of the data set: cell-based or functional assay.
Data set [4] addresses T1, rsTF (recombinant soluble tissue factor), P13726.
T1 chain: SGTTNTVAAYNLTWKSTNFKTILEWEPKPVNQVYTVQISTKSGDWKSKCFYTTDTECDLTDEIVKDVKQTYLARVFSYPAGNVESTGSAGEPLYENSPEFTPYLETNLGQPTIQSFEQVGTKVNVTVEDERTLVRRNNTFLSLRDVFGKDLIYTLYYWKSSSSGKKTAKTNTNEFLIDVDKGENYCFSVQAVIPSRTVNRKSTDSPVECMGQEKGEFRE

Turning to “FacVII-ATKAVC (FacVII derivative with SOD1 residues 1-6, ATKAVC, at the C-terminus) (from UniProt P08709 1-466) (enzyme)”, in data set [1], the EC50 (ng/mL), chromogenic assay (COASET) amounted to 1.75 ng/mL; the EC50 (ng/mL), chromogenic assay (COASET), Run 1 was 1.36 ng/mL; the EC50 (ng/mL), chromogenic assay (COASET), Run 2 was determined as 1.16 ng/mL.

In the case of “FacVII-ATKAVC-40 kDa PEG conjugate (C-terminal PEGylated) (from UniProt P08709 1-466) (enzyme)”, the EC50 (ng/mL), chromogenic assay (COASET) in data set [1] is 6.06 ng/mL.

B1: blood coagulation factor VII (Factor VII, FacVII), native (protein)
chain: AVFVTQEEAHGVLHRRRRANAFLEELRPGSLERECKEEQCSFEEAREIFKDAERTKLFWISYSDGDQCASSPCQNGGSCKDQLQSYICFCLPAFEGRNCETHKDDQLICVNENGGCEQYCSDHTGTKRSCRCHEGYSLLADGVSCTPTVEYPCGKIPILEKRNASKPQGRIVGGKVCPKGECPWQVLLLVNGAQLCGGTLINTIWVVSAAHCFDKIKNWRNLIAVLGEHDLSEHDGDEQSRRVAQVIIPSTYVPGTTNHDIALLRLHQPVVLTDHVVPLCLPERTFSERTLAFVRFSLVSGWGQLLDRGATALELMVLNVPRLMTQDCLQQSRKVGDSPNITEYMFCAGYSDGSKDSCKGDSGGPHATHYRGTWYLTGIVSWGQGCATVGHFGVYTRVSQYIEWLQKLMRSEPRPGVLLRAPFP
As for B1, in data set [1], the EC50 (ng/mL), chromogenic assay (COASET) is 1.38 ng/mL; the EC50 (ng/mL), chromogenic assay (COASET), Run 1 was 1.62 ng/mL; the EC50 (ng/mL), chromogenic assay (COASET), Run 2 was determined as 1.67 ng/mL. Moreover, in data set [2], the Relative activity, %, chromogenic assay (COASET) amounted to 100%; the Relative activity, %, chromogenic assay (COASET), Run 1 stood at 100%; the Relative activity, %, chromogenic assay (COASET), Run 2 stood at 100%.

B2: FacVII-40 kDa PEG (N-terminal PEGylated FacVII) (protein)
chain: B1 chain
With B2, the EC50 (ng/mL), chromogenic assay (COASET) in data set [1] was found to be 12.2 ng/mL. The Relative activity, % (compared to FacVII), chromogenic assay (COASET) in data set [2] amounted to 11.3%.

B3: FacVIIa-ATKAVC-PEG-Fc complex (protein, part only; not given: Fc region and PEG linker, not shown: a dimerising Fc or GST)
chain: MVSQALRLLCLLLGLQGCLAAVFVTQEEAHGVLHRRRRANAFLEELRPGSLERECKEEQCSFEEAREIFKDAERTKLFWISYSDGDQCASSPCQNGGSCKDQLQSYICFCLPAFEGRNCETHKDDQLICVNENGGCEQYCSDHTGTKRSCRCHEGYSLLADGVSCTPTVEYPCGKIPILEKRNASKPQGRIVGGKVCPKGECPWQVLLLVNGAQLCGGTLINTIWVVSAAHCFDKIKNWRNLIAVLGEHDLSEHDGDEQSRRVAQVIIPSTYVPGTTNHDIALLRLHQPVVLTDHVVPLCLPERTFSERTLAFVRFSLVSGWGQLLDRGATALELMVLNVPRLMTQDCLQQSRKVGDSPNITEYMFCAGYSDGSKDSCKGDSGGPHATHYRGTWYLTGIVSWGQGCATVGHFGVYTRVSQYIEWLQKLMRSEPRPGVLLRAPFPATKAVC
modifications: C-terminal cysteine linked to the maleimide end of 10 kDa PEG
As to B3, in data set [3], the Potency (IU/mL), clotting assay (StaclotVIIa-rTF) was found to be 1990 IU/mL; the Residual activity, % (compared to FacVIIa-ATKAVC), clotting assay (StaclotVIIa-rTF) was found to be 44.7%; the Specific activity (IU/mg as FacVIIa), clotting assay (StaclotVIIa-rTF) was determined as 20600 IU/mg.

B4: FacVIIa-ATKAVC (activated FacVII-ATKAVC derivative) (protein)
chain: AVFVTQEEAHGVLHRRRRANAFLEELRPGSLERECKEEQCSFEEAREIFKDAERTKLFWISYSDGDQCASSPCQNGGSCKDQLQSYICFCLPAFEGRNCETHKDDQLICVNENGGCEQYCSDHTGTKRSCRCHEGYSLLADGVSCTPTVEYPCGKIPILEKRNASKPQGRIVGGKVCPKGECPWQVLLLVNGAQLCGGTLINTIWVVSAAHCFDKIKNWRNLIAVLGEHDLSEHDGDEQSRRVAQVIIPSTYVPGTTNHDIALLRLHQPVVLTDHVVPLCLPERTFSERTLAFVRFSLVSGWGQLLDRGATALELMVLNVPRLMTQDCLQQSRKVGDSPNITEYMFCAGYSDGSKDSCKGDSGGPHATHYRGTWYLTGIVSWGQGCATVGHFGVYTRVSQYIEWLQKLMRSEPRPGVLLRAPFPATKAVC
In the case of B4, in data set [4], the Potency (IU/mL), clotting assay (StaclotVIIa-rTF) worked out at 16700 IU/mL and the Specific activity (IU/mg as FacVIIa), clotting assay (StaclotVIIa-rTF) is 46100 IU/mg.

These data come from US20140271607A1.
